Source: patent US20020065218A1

Columns and labels:
[1] = target: chimeric receptor consisting of the extracellular domain of mouse VEGFR-2 and the cytoplasmic domain of erythropoietin receptor, on Ba/F3 cells (mouse) (UniProt P35918); assay: cell-based or functional assay
[2] = target: chimeric receptor consisting of the extracellular domain of mouse VEGFR-3 and the cytoplasmic domain of erythropoietin receptor, on Ba/F3 cells (mouse) (UniProt P35917); assay: cell-based or functional assay
Sequence of UniProt P35917 (P35917 25-775, change not shown): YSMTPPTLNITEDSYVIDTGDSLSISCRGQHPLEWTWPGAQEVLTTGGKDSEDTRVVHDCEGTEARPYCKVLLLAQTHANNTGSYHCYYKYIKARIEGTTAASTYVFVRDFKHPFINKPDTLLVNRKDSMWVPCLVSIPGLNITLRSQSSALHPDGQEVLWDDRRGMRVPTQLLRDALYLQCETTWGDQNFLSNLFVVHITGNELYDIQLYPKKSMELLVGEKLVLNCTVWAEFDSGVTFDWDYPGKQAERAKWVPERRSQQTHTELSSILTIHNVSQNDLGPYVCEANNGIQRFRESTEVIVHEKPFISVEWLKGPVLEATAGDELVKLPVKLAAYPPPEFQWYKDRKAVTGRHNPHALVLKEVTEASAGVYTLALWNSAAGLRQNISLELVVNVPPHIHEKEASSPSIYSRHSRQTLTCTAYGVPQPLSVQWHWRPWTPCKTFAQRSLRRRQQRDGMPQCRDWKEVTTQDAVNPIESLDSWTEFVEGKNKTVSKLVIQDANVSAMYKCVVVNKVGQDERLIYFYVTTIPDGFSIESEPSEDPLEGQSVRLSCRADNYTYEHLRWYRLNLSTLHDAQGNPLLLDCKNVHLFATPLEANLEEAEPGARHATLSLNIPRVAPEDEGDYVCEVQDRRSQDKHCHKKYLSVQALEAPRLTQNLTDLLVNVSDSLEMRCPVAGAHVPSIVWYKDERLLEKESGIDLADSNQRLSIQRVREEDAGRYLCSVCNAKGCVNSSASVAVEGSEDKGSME

Sequence of UniProt P35918 (P35918 20-762, change not shown): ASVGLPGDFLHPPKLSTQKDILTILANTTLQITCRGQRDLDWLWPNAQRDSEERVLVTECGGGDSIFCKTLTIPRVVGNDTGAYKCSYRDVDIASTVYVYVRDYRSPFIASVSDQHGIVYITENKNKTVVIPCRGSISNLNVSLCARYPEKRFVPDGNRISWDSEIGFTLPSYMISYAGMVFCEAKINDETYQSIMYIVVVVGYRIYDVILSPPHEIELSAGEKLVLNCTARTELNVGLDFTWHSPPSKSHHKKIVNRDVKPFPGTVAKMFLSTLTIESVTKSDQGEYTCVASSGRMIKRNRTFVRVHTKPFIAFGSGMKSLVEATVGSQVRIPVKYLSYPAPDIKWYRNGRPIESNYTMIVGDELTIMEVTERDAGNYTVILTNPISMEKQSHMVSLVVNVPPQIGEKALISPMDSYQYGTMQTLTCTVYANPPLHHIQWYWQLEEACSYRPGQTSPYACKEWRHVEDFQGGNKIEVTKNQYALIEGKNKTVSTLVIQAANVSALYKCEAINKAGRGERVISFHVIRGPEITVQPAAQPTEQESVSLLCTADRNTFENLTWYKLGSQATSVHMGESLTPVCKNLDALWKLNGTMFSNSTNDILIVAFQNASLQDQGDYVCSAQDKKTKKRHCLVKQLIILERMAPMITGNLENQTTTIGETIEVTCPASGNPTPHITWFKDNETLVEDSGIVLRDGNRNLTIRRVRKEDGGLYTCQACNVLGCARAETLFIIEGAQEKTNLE

Substance | concentration producing near-maximal survival of Ba/F3-NYK-EpoR cells without IL-3 [1] | concentration producing near-maximal survival of Ba/F3 VEGFR-3-EpoR cells without IL-3 [2]
recombinant VEGF-CΔNΔC (from UniProt P49767 103-215) (ligand) | 50 ng/mL | 3 ng/mL
recombinant VEGF-DΔNΔC (from UniProt O43915 93-201) (ligand) | 500 ng/mL | 500 ng/mL
